The results in this text go back to patent publication US20230346885A1 (published 2023).

Experiment in all cases: binding, other
Assay [1] concerns the target T1, ASCL2 peptide on HLA (human).
T1 peptide: LLAEHDAVRNA

In assay [2] the target is T2, ASCL2 peptide on HLA (human).
T2 peptide: LLAEHDAVRNAL

For another assay, the target named is T3, BRDT peptide on HLA (human).
T3 peptide: EMFPKFTEV

The next assay addresses T4, CALHM3 peptide on HLA (human).
T4 peptide: ALLDGKCFV

Assay [3] concerns the target T5, ACTL8 peptide on HLA (human).
T5 peptide: ALDESNTYQL

The target of assay [4] is T6, ACTL8 peptide on HLA (human).
T6 peptide: RCLFQLETV

In assay [5] the target is T7, ACTL8 peptide on HLA (human).
T7 peptide: SLYASGLLTGV

Changes are numbered by the printed parent chain.

B1: TCR of SEQ ID NOs 305 and 306 (TCR, V domains shown)
Valpha: KQEVTQIPAALSVPEGENLVLNCSFTDSAIYNLQWFRQDPGKGLTSLLLIQSSQREQTSGRLNASLDKSSGRSTLYIAASQPGDSATYLCAVRSSTDSWGKFQFGAGTQVVVTP
Vbeta: NAGVTQTPKFQVLKTGQSMTLQCAQDMNHEYMSWYRQDPGMGLRLIHYSVGAGITDQGEVPNGYNVSRSTTEDFPLRLLSAAPSQTSVYFCASSYSAGLTGELFFGEGSRLTVL
For B1, the binding result in the assay with ASCL2 peptide on HLA [1] is on record as “recognises”.

B2: TCR of SEQ ID NOs 297 and 298 (TCR, V domains shown)
Valpha: KQEVTQIPAALSVPEGENLVLNCSFTDSAIYNLQWFRQDPGKGLTSLLLIQSSQREQTSGRLNASLDKSSGRSTLYIAASQPGDSATYLCAVLTNDYKLSFGAGTTVTVRA
Vbeta: NAGVTQTPKFRVLKTGQSMTLLCAQDMNHEYMYWYRQDPGMGLRLIHYSVGEGTTAKGEVPDGYNVSRLKKQNFLLGLESAAPSQTSVYFCASSYSGFDSPLHFGNGTRLTVT
For B2, in the assay with ASCL2 peptide on HLA [2], the binding result is on record as “recognises”.

B3: TCR of SEQ ID NOs 313 and 314 (TCR, V domains shown)
Valpha: KQEVTQIPAALSVPEGENLVLNCSFTDSAIYNLQWFRQDPGKGLTSLLLIQSSQREQTSGRLNASLDKSSGRSTLYIAASQPGDSATYLCAVSNYGGSQGNLIFGKGTKLSVKP
Vbeta: B2 Vbeta with S94T, Y95H, S96W, F98R
As for B3, in the assay with BRDT peptide on HLA, the binding result was “recognises”.

B4: TCR of SEQ ID NOs 325 and 326 (TCR, V domains shown)
Valpha: QKEVEQNSGPLSVPEGAIASLNCTYSDRGSQSFFWYRQYSGKSPELIMFIYSNGDKEDGRFTAQLNKASQYVSLLIRDSQPSDSATYLCAVRTPSGSARQLTFGSGTQLTVLP
Vbeta: DAGVTQSPTHLIKTRGQHVTLRCSPKSGHDTVSWYQQALGQGPQFIFQYYGEEERQRGNFPDRFSGHQFPNYSSELNVNALLLGDSALYLCASSLGAGGGHSGNTIYFGEGSWLTVV
B4: the binding result with CALHM3 peptide on HLA is recorded as “recognises”.

B5: TCR of SEQ ID NOs 315 and 316 (TCR, V domains shown)
Valpha: KQEVTQIPAALSVPEGENLVLNCSFTDSAIYNLQWFRQDPGKGLTSLLLIQSSQREQTSGRLNASLDKSSGRSTLYIAASQPGDSATYLCAVSPRSNDYKLSFGAGTTVTVRA
Vbeta: NAGVTQTPKFRILKIGQSMTLQCTQDMNHNYMYWYRQDPGMGLKLIYYSVGAGTTDKGEVPNGYNVSRLNKREFSLRLESAAPSQTSVYFCASSATRRGDYGYTFGSGTRLTVV
On to B5, for which, in the assay with BRDT peptide on HLA, the binding result was “recognises”.

B6: TCR of SEQ ID NOs 309 and 310 (TCR, V domains shown)
Valpha: KQEVTQIPAALSVPEGENLVLNCSFTDSAIYNLQWFRQDPGKGLTSLLLIQSSQREQTSGRLNASLDKSSGRSTLYIAASQPGDSATYLCAVRPAGQNFVFGPGTRLSVLP
Vbeta: NAGVTQTPKFQVLKTGQSMTLQCAQDMNHNSMYWYRQDPGMGLRLIYYSASEGTTDKGEVPNGYNVSRLNKREFSLRLESAAPSQTSVYFCASSEALWGGNTEAFFGQGTRLPVV
In the case of B6, the binding result with ASCL2 peptide on HLA [1] was “recognises”.

B7: TCR of SEQ ID NOs 293 and 294 (TCR, V domains shown)
Valpha: KQEVTQIPAALSVPEGENLVLNCSFTDSAIYNLQWFRQDPGKGLTSLLLIQSSQREQTSGRLNASLDKSSGRSTLYIAASQPGDSATYLCAVRQHTGRRALTFGSGTRLQVQP
Vbeta: NAGVTQTPKFRILKIGQSMTLQCTQDMNHNYMYWYRQDPGMGLKLIYYSVGAGITDKGEVPNGYNVSRSTTEDFPLRLELAAPSQTSVYFCASSYSPENTEAFFGQGTRLTVV
In the case of B7, the binding result with ASCL2 peptide on HLA [2] is “recognises”.

B8: TCR of SEQ ID NOs 295 and 296 (TCR, V domains shown)
Valpha: B7 Valpha
Vbeta: NAGVTQTPKFRILKIGQSMTLQCTQDMNHNYMYWYRQDPGMGLRLIHYSVGAGITDQGEVPNGYNVSRSTTEDFPLRLLSAAPSQTSVYFCASSYSPEADIQYFGAGTRLSVL
For the molecule B8, in the assay with ASCL2 peptide on HLA [2], the binding result is on record as “recognises”.

B9: TCR of SEQ ID NOs 327 and 328 (TCR, V domains shown)
Valpha: GNSVTQMEGPVTLSEEAFLTINCTYTATGYPSLFWYVQYPGEGLQLLLKATKADDKGSNKGFEATYRKETTSFHLEKGSVQVSDSAVYFCAPHTDKLIFGTGTRLQVFP
Vbeta: DSGVTQTPKHLITATGQRVTLRCSPRSGDLSVYWYQQSLDQGLQFLIQYYNGEERAKGNILERFSAQQFPDLHSELNLSSLELGDSALYFCASSGGTGDGYTFGSGTRLTVV
For the molecule B9, in the assay with CALHM3 peptide on HLA, the binding result is given as “recognises”.

B10: TCR of SEQ ID NOs 279 and 280 (TCR, V domains shown)
Valpha: KQEVTQIPAALSVPEGENLVLNCSFTDSAIYNLQWFRQDPGKGLTSLLLIQSSQREQTSGRLNASLDKSSGRSTLYIAASQPGDSATYLCATGFQKLVFGTGTRLLVSP
Vbeta: NAGVTQTPKFQVLKTGQSMTLQCAQDMNHNSMYWYRQDPGMGLRLIYYSASEGTTDKGEVPNGYNVSRLNKREFSLRLESAAPSQTSVYFCASTLGRLLTEAFFGQGTRLTVV
For the molecule B10, the binding result with ACTL8 peptide on HLA [3] is recorded as “recognises”.

B11: TCR of SEQ ID NOs 291 and 292 (TCR, V domains shown)
Valpha: B10 Valpha with T92V, G93D, F94A, Q95D, V98I, L106Q, S108F
Vbeta: NAGVTQTPKFRILKIGQSMTLQCTQDMNHEYMYWYRQDPGMGLRLIHYSVGEGTTAKGEVPDGYNVSRLKKQNFLLGLESAAPSQTSVYFCASREVGRDEHFFGPGTRLTVL
Take B11: the binding result in the assay with ACTL8 peptide on HLA [4] is on record as “recognises”.

B12: TCR of SEQ ID NOs 289 and 290 (TCR, V domains shown)
Valpha: KQEVTQIPAALSVPEGENLVLNCSFTDSAIYNLQWFRQDPGKGLTSLLLIQSSQREQTSGRLNASLDKSSGRSTLYIAASQPGDSATYLCAVDSSGSRLTFGEGTQLTVNP
Vbeta: NAGVTQTPKFQVLKTGQSMTLQCAQDMNHEYMYWYRQDPGMGLRLIHYSVGAGITDQGEVPNGYNVSRSTTEDFPLRLLSAAPSQTSVYFCASRLLGGSGYTFGSGTRLTVV
Turning to B12, the binding result with ACTL8 peptide on HLA [4] is given as “recognises”.

B13: TCR of SEQ ID NOs 307 and 308 (TCR, V domains shown)
Valpha: B12 Valpha with D93T, S94D, G96W, S97G, R98K, T100Q, E103A, L107V, T108V, N110T
Vbeta: NAGVTQTPKFQVLKTGQSMTLQCAQDMNHNSMYWYRQDPGMGLRLIYYSVGAGITDQGEVPNGYNVSRSTTEDFPLRLLSAAPSQTSVYFCASSRGPINYGYTFGSGTRLTVV
As for B13, the binding result in the assay with ASCL2 peptide on HLA [1] is recorded as “recognises”.

B14: TCR of SEQ ID NOs 323 and 324 (TCR, V domains shown)
Valpha: KQEVTQIPAALSVPEGENLVLNCSFTDSAIYNFQWFRQDPGKGLTSLLLIQSSQREQTSGRLNASLDKSSGRSTLYIAASQPGDSATYLCAAHPATGANSKLTFGKGITLSVRP
Vbeta: NAGVTQTPKFQVLKTGQGMTLQCAQDMNHNSMYWYRQDPGMGLRLIYYSASEGTTDKGEVPNGYNVSRLNKREFSLRLESAAPSQTSVYFCASSEASGSNSPLHFGNGTRLTVT
Turning to B14, the binding result with CALHM3 peptide on HLA was “recognises”.

B15: TCR of SEQ ID NOs 283 and 284 (TCR, V domains shown)
Valpha: KQEVTQIPAALSVPEGENLVLNCSFTDSAIYNLQWFRQDPGKGLTSLLLIQSSQREQTSGRLNASLDKSSGRSTLYIAASQPGDSATYLCAVKKDAGNKLTFGGGTRVLVKP
Vbeta: NAGVTQTPKFRVLKTGQSMTLLCAQDMNHEYMYWYRQDPGMGLRLIYYSASEGTTDKGEVPNGYNVSRLNKREFSLRLESAAPSQTSVYFCASSDSRRGGLLLYNSPLHFGNGTRLTVT
For B15, the binding result with ACTL8 peptide on HLA [5] was “recognises”.

B16: TCR of SEQ ID NOs 285 and 286 (TCR, V domains shown)
Valpha: B6 Valpha with P94A, Q97N, N98K, F99L, V100T, P103G, L107V, S108L, L110K
Vbeta: B15 Vbeta
On to B16, for which, in the assay with ACTL8 peptide on HLA [5], the binding result is “recognises”.

B17: TCR of SEQ ID NOs 287 and 288 (TCR, V domains shown)
Valpha: KQEVTQIPAALSVPEGENLVLNCSFTDSAIYNLQWFRQDPGKGLTSLLLIQSSQREQTSGRLNASLDKSSGRSTLYIAASQPGDSATYLCAVNYYNQGGKLIFGQGTELSVKP
Vbeta: NAGVTQTPKFQVLKTGQSMTLQCAQDMNHNSMYWYRQDPGMGLRLIYYSASEGTTDKGEVPNGYNVSRLNKREFSLRLESAAPSQTSVYFCASTPTYWDSYEQYFGPGTRLTVT
Regarding B17, the binding result with ACTL8 peptide on HLA [4] is on record as “recognises”.

B18: TCR of SEQ ID NOs 311 and 312 (TCR, V domains shown)
Valpha: B17 Valpha with N93T, Y94G, Y95G, N96T, Q97S, G98Y, I102T, E108I, S110T, K112H
Vbeta: NAGVTQTPKFRILKIGQSMTLQCTQDMNHNYMYWYRQDPGMGLKLIYYSVGAGITDKGEVPNGYNVSRSTTEDFPLRLELAAPSQTSVYFCASSYWAGVLTEAFFGQGTRLTVV
With B18, the binding result with BRDT peptide on HLA is “recognises”.

B19: TCR of SEQ ID NOs 275 and 276 (TCR, V domains shown)
Valpha: KQEVTQIPAALSVPEGENLVLNCSFTDSAIYNLQWFRQDPGKGLTSLLLIQSSQREQTSGRLNASLDKSSGRSTLYIAASQPGDSATYLCAVRGYNKLIFGAGTRLAVHP
Vbeta: NAGVTQTPKFRILKIGQSMTLQCTQDMNHNYMYWYRQDPGMGLKLIYYSVGAGITDKGEVPNGYNVSRSTTEDFPLRLLSAAPSQTSVYFCASSYSPIVGAFFGQGTRLTVV
Turning to B19, the binding result with ACTL8 peptide on HLA [3] is “recognises”.

B20: TCR of SEQ ID NOs 281 and 282 (TCR, V domains shown)
Valpha: B19 Valpha
Vbeta: NAGVTQTPKFRVLKTGQSMTLLCAQDMNHEYMYWYRQDPGMGLRLIHYSVGEGTTAKGEVPDGYNVSRLKKQNFLLGLESAAPSQTSVYFCASSFDVTEAFFGQGTRLTVV
B20: the binding result with ACTL8 peptide on HLA [5] is given as “recognises”.

B21: TCR of SEQ ID NOs 277 and 278 (TCR, V domains shown)
Valpha: B19 Valpha
Vbeta: NAGVTQTPKFRILKIGQSMTLQCAQDMNHNYMYWYRQDPGMGLKLIYYSVGAGITDKGEVPNGYNVSRSTTEDFPLRLELAAPSQTSVYFCASTRDTYYGYTFGSGTRLTVV
For B21, the binding result in the assay with ACTL8 peptide on HLA [3] was “recognises”.
